In patent US20230151068A1:
Changes are numbered by the printed parent chain. In names and notes the source's numbering stands.

B1: D16G variant of SEQ ID NO: 1 (designed binder)
chain: GSPDEYIERAKECCKKGGIQCCLRYFEESGDPNVMLICLFCP
B2: I17G variant of SEQ ID NO: 1 (designed binder)
chain: B1 chain with G18D, I19G
B3: Q18G variant of SEQ ID NO: 1 (designed binder)
chain: B1 chain with G18D, Q20G
B4: K13D variant of SEQ ID NO: 1 (designed binder)
chain: B1 chain with K15D, G18D
B5: K14D variant of SEQ ID NO: 1 (designed binder)
chain: B1 chain with K16D, G18D
B6: G15D variant of SEQ ID NO: 1 (designed binder)
chain: B1 chain with G17D, G18D
B7: I17D variant of SEQ ID NO: 1 (designed binder)
chain: B1 chain with G18D, I19D
B8: Q18D variant of SEQ ID NO: 1 (designed binder)
chain: B1 chain with G18D, Q20D
B9: K13E variant of SEQ ID NO: 1 (designed binder)
chain: B1 chain with K15E, G18D
B10: K14E variant of SEQ ID NO: 1 (designed binder)
chain: B1 chain with K16E, G18D
B11: G15E variant of SEQ ID NO: 1 (designed binder)
chain: B1 chain with G17E, G18D
B12: D16E variant of SEQ ID NO: 1 (designed binder)
chain: B1 chain with G18E
B13: I17E variant of SEQ ID NO: 1 (designed binder)
chain: B1 chain with G18D, I19E
B14: Q18E variant of SEQ ID NO: 1 (designed binder)
chain: B1 chain with G18D, Q20E
B15: K13H variant of SEQ ID NO: 1 (designed binder)
chain: B1 chain with K15H, G18D
B16: K14H variant of SEQ ID NO: 1 (designed binder)
chain: B1 chain with K16H, G18D
B17: G15H variant of SEQ ID NO: 1 (designed binder)
chain: B1 chain with G17H, G18D
B18: D16H variant of SEQ ID NO: 1 (designed binder)
chain: B1 chain with G18H
B19: I17H variant of SEQ ID NO: 1 (designed binder)
chain: B1 chain with G18D, I19H
B20: Q18H variant of SEQ ID NO: 1 (designed binder)
chain: B1 chain with G18D, Q20H
B21: G15K variant of SEQ ID NO: 1 (designed binder)
chain: B1 chain with G17K, G18D
B22: D16K variant of SEQ ID NO: 1 (designed binder)
chain: B1 chain with G18K
B23: I17K variant of SEQ ID NO: 1 (designed binder)
chain: B1 chain with G18D, I19K
B24: Q18K variant of SEQ ID NO: 1 (designed binder)
chain: B1 chain with G18D, Q20K
B25: K13R variant of SEQ ID NO: 1 (designed binder)
chain: B1 chain with K15R, G18D
B26: K14R variant of SEQ ID NO: 1 (designed binder)
chain: B1 chain with K16R, G18D
B27: G15R variant of SEQ ID NO: 1 (designed binder)
chain: B1 chain with G17R, G18D
B28: D16R variant of SEQ ID NO: 1 (designed binder)
chain: B1 chain with G18R
B29: I17R variant of SEQ ID NO: 1 (designed binder)
chain: B1 chain with G18D, I19R
B30: Q18R variant of SEQ ID NO: 1 (designed binder)
chain: B1 chain with G18D, Q20R
B31: K13M variant of SEQ ID NO: 1 (designed binder)
chain: B1 chain with K15M, G18D
B32: K14M variant of SEQ ID NO: 1 (designed binder)
chain: B1 chain with K16M, G18D
B33: G15M variant of SEQ ID NO: 1 (designed binder)
chain: B1 chain with G17M, G18D
B34: D16M variant of SEQ ID NO: 1 (designed binder)
chain: B1 chain with G18M
B35: I17M variant of SEQ ID NO: 1 (designed binder)
chain: B1 chain with G18D, I19M
B36: Q18M variant of SEQ ID NO: 1 (designed binder)
chain: B1 chain with G18D, Q20M
B37: K13N variant of SEQ ID NO: 1 (designed binder)
chain: B1 chain with K15N, G18D
B38: K14N variant of SEQ ID NO: 1 (designed binder)
chain: B1 chain with K16N, G18D
B39: G15N variant of SEQ ID NO: 1 (designed binder)
chain: B1 chain with G17N, G18D
B40: D16N variant of SEQ ID NO: 1 (designed binder)
chain: B1 chain with G18N
B41: I17N variant of SEQ ID NO: 1 (designed binder)
chain: B1 chain with G18D, I19N
B42: Q18N variant of SEQ ID NO: 1 (designed binder)
chain: B1 chain with G18D, Q20N
B43: K13Q variant of SEQ ID NO: 1 (designed binder)
chain: B1 chain with K15Q, G18D
B44: K14Q variant of SEQ ID NO: 1 (designed binder)
chain: B1 chain with K16Q, G18D
B45: G15Q variant of SEQ ID NO: 1 (designed binder)
chain: B1 chain with G17Q, G18D
B46: D16Q variant of SEQ ID NO: 1 (designed binder)
chain: B1 chain with G18Q
B47: I17Q variant of SEQ ID NO: 1 (designed binder)
chain: B1 chain with G18D, I19Q
B48: K13S variant of SEQ ID NO: 1 (designed binder)
chain: B1 chain with K15S, G18D
B49: K14S variant of SEQ ID NO: 1 (designed binder)
chain: B1 chain with K16S, G18D
B50: G15S variant of SEQ ID NO: 1 (designed binder)
chain: B1 chain with G17S, G18D
B51: D16S variant of SEQ ID NO: 1 (designed binder)
chain: B1 chain with G18S
B52: I17S variant of SEQ ID NO: 1 (designed binder)
chain: B1 chain with G18D, I19S
B53: Q18S variant of SEQ ID NO: 1 (designed binder)
chain: B1 chain with G18D, Q20S
B54: K13T variant of SEQ ID NO: 1 (designed binder)
chain: B1 chain with K15T, G18D
B55: K14T variant of SEQ ID NO: 1 (designed binder)
chain: B1 chain with K16T, G18D
B56: G15T variant of SEQ ID NO: 1 (designed binder)
chain: B1 chain with G17T, G18D
B57: D16T variant of SEQ ID NO: 1 (designed binder)
chain: B1 chain with G18T
B58: I17T variant of SEQ ID NO: 1 (designed binder)
chain: B1 chain with G18D, I19T
B59: Q18T variant of SEQ ID NO: 1 (designed binder)
chain: B1 chain with G18D, Q20T
B60: K13A variant of SEQ ID NO: 1 (designed binder)
chain: B1 chain with K15A, G18D
B61: K14A variant of SEQ ID NO: 1 (designed binder)
chain: B1 chain with K16A, G18D
B62: G15A variant of SEQ ID NO: 1 (designed binder)
chain: B1 chain with G17A, G18D

Target: biotinylated His-Avi-TEAD (194-411) (UniProt P28347)
Assay: SSM screen, enrichment after two rounds of sorting

Binder | enrichment score
B1 | -9.54
B2 | -5.4
B3 | -2.03
B4 | 0.43
B5 | 1.27
B6 | -0.26
B7 | -9.42
B8 | -0.19
B9 | -0.1
B10 | 1
B11 | 1.99
B12 | -3.6
B13 | -0.3
B14 | -0.84
B15 | -0.44
B16 | 0.53
B17 | 3.18
B18 | -4.55
B19 | -3.33
B20 | -4.39
B21 | 4.43

Binder | enrichment score
B22 | -6.95
B23 | -4.53
B24 | -1.54
B25 | -0.81
B26 | -1.06
B27 | 0.91
B28 | -5.59
B29 | 0.46
B30 | -3.67
B31 | -0.4
B32 | -0.92
B33 | 1.64
B34 | -4.12
B35 | -2.95
B36 | -9.52
B37 | 0.6
B38 | 1.51
B39 | 3.06
B40 | -2.7
B41 | 0.47
B42 | -0.16

Binder | enrichment score
B43 | 2.23
B44 | 0.17
B45 | 2.5
B46 | -3.47
B47 | -3.1
B48 | 1.43
B49 | 1.61
B50 | 2.37
B51 | -2.71
B52 | -2.1
B53 | -1.25
B54 | 1.49
B55 | 3.18
B56 | 2.65
B57 | -10
B58 | 2.21
B59 | -2.28
B60 | 1.94
B61 | -0.22
B62 | 1.89
